Assay type: physicochemical
Settings: pH 8
Procedure: For example, 200 mM potassium phosphate buffer (pH 8.0) is used for a treatment at 45° C. for 10 minutes to determine the remaining activities of the oxidases of the invention. The oxidases of the invention having high stability at a high temperature range are particularly preferable for industrial use. The oxidases of the invention may, for example, have a remaining activity of 50% or higher, preferably 70% or higher, and more preferably 80% or higher under the above-described conditions. For example, 200 mM potassium phosphate buffer (pH 8.0) is used for a treatment at 45° C. for 10 minutes. Then, the remaining activities of the enzymes of the invention are determined. The oxidases of the invention having high stability at a high temperature range are particularly preferable for industrial use. The oxidases of the invention that have less action on ε-fructosyl lysine may, for example, have a remaining activity of 50% or higher, preferably 70% or higher, more preferably 80% or higher under the above-described conditions. […] Next, the physiochemical properties of these oxidases were determined. […] Each crude enzyme sample was heat-treated at 45° C. for 10 minutes, and then its activity for fructosyl valyl histidine was determined and compared to the activity before treatment. […]

B1: Eupenicillium terrenum ATCC 18547: fructosyl peptide oxidase produced by Eupenicillium terrenum ATCC 18547 with less action on ε-fructosyl lysine; amino acid sequence SEQ ID NO: 3 (protein, listed as Eupenicillium terrenum)
chain: MAHSRASTKVVVVGGGGTIGSSTALHLIRSGYTPSNITVLDVYKTPSLQSAGHDLNKIMGIRLRNGPDLQLSLESLDMWQNDELFKPFFHQVGMIDCSSSKEGIENLRRKYQTLLDAGIGLEKTNVWLESEDEILAKAPNFTREQVKGWKGLFCTDGGWLAAAKAINAIGIFLQDKGVKFGFGGAGTFQQPLFAADGKTCIGLETTDGTKYFADKVVLAAGAWSPTLVDLEDQCVSKAWVFAHIQLTPKEADAYKNVPVVYDGEYGFFFEPNEYGVIKVCDEFPGFSRFKLHQPYGAASPKMISVPRSHAKHPTDTYPDASEVTIRKAIARFLPEFKDKELFNRTMCWCTDTADANLLICEHPKWKNFILATGDSGHSFKLLPNIGKHVVELLEGSLSQEMAGAWRWRPGGDALRSRRGAPAKDLAEMPGWKHDAHL
For B1, which “remaining activity following heat treatment at 45° C. for 10 minutes” value is on record?
The value was “approximately 100%”.
